The numbers were not newly measured in article PMC4380812, which cites them from elsewhere.

The target in the data set is HdeA (Escherichia coli) (UniProt P0AES9).

Chain of HdeA (P0AES9 22-110): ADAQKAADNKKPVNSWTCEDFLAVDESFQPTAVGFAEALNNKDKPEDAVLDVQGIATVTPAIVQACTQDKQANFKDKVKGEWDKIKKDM

For the substance HdeA (from UniProt P0AES9), the Kd (as a rule, the concentration at which binding is half-saturated) was 1000 nM.
